Measurements reported in publication PMC9880977 (Computational and Structural Biotechnology Journal, 2023).

What was measured:
HaLF [1] = molecular target: T1, HaLF (Heterobasidion irregulare, UniProt W4KBR7); test: spectrophotometric oxidation at […] nm, hyperbola or Hill fit; type: biochemical; conditions: read-out: HaLF / KM; 100 mM citrate-phosphate pH 4; air O2
T1 sequence (W4KBR7 21-648): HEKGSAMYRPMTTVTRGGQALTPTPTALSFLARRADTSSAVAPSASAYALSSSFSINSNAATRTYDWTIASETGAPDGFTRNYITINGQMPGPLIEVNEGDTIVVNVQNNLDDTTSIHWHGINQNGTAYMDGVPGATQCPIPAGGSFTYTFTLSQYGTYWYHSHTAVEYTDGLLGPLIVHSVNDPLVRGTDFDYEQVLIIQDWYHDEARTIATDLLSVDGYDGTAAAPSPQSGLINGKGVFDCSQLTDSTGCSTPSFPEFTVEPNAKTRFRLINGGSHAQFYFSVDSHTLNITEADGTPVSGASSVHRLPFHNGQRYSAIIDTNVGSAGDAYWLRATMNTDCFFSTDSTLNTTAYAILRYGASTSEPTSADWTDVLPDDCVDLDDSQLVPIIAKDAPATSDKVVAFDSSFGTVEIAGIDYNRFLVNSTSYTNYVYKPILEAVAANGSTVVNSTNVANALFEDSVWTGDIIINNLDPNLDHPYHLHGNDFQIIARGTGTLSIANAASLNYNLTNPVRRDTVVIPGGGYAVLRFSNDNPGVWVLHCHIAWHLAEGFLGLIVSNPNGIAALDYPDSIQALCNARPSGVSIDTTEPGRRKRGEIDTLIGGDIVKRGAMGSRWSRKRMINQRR

HaLF [2] = molecular target: T2, HaLF (Heterobasidion irregulare, UniProt W4KBR7, A247E/F364D); test: as above; type: biochemical; conditions: read-out: HaLFA227E, F344D / KM; 100 mM citrate-phosphate pH 4; air O2
T2 sequence (W4KBR7 21-648 A247E/F364D): T1 sequence (W4KBR7 21-648)

COc1cccc(OC)c1O = test: purified protein; type: biochemical, Heterobasidion irregulare; conditions: 100 mM citrate-phosphate pH 5, air O2
COc1ccccc1O = test: purified protein; type: biochemical, Heterobasidion irregulare; conditions: 100 mM citrate-phosphate pH 5, air O2
[3] = tested on: CCn1c(=NN=c2sc3cc(S(=O)(=O)O)ccc3n2CC)sc2cc(S(=O)(=O)O)ccc21; test: purified protein; conditions: 100 mM citrate-phosphate pH 4, air O2
purified protein [4] = substrate: COc1cccc(OC)c1O; test: purified protein; type: biochemical, Heterobasidion irregulare; conditions: 100 mM citrate-phosphate pH 5, air O2; remark: listed apart in the source
purified protein [5] = substrate: COc1ccccc1O; test: purified protein; type: biochemical, Heterobasidion irregulare; conditions: 100 mM citrate-phosphate pH 5, air O2; remark: listed apart in the source
purified protein [6] = substrate: CCn1c(=NN=c2sc3cc(S(=O)(=O)O)ccc3n2CC)sc2cc(S(=O)(=O)O)ccc21; test: purified protein; conditions: 100 mM citrate-phosphate pH 4, air O2; remark: listed apart in the source
purified protein [7] = substrate: Nc1ccccc1N; test: purified protein; conditions: 100 mM citrate-phosphate pH 4, air O2

CN(C)c1ccc(N)cc1 [DMPD, N,N-Dimethyl-1,4-phenylenediamine]
Km (HaLF [1]): 8 ± 0.4 mM
Km (HaLF [2]): 9 ± 0.8 mM

HaLF (Heterobasidion irregulare TC 32-1; A247E/F364D)
Km (COc1cccc(OC)c1O): 3.8 ± 0.3 mM
kcat (COc1cccc(OC)c1O): 0.87 ± 0.03 s⁻¹
Km (COc1ccccc1O): 31 ± 4 mM
kcat (COc1ccccc1O): 0.3 ± 0.02 s⁻¹
Km [3]: 11 ± 1.5 mM
kcat [3]: 16 ± 1 s⁻¹

B1: HaLF (Heterobasidion irregulare TC 32-1) (protein)
chain: T1 sequence (W4KBR7 21-648)
Km (purified protein [4]): 0.5 ± 0.05 mM
kcat (purified protein [4]): 122 ± 4 s⁻¹
Km (purified protein [5]): 20 ± 5 mM
kcat (purified protein [5]): 3.7 ± 0.4 s⁻¹
Km (purified protein [6]): 4 ± 0.6 mM
kcat (purified protein [6]): 428 ± 14 s⁻¹
Km (purified protein [7]): 1.6 ± 0.3 mM
kcat (purified protein [7]): 26 ± 2 s⁻¹
